Source: patent publication US20240376185A1

Columns and labels:
swine IgG = test: ELISA, coated antigen, E. coli supernatant
guinea pig IgG = test: ELISA, coated antigen, E. coli supernatant
horse IgG Fab fragment = test: ELISA, coated antigen, E. coli supernatant
horse IgG Fc fragment = test: ELISA, coated antigen, E. coli supernatant
dog IgG = test: ELISA, coated antigen, E. coli supernatant
dog IgG Fab fragment = test: ELISA, coated antigen, E. coli supernatant
bovine IgG = test: ELISA, coated antigen, E. coli supernatant
human IgG = test: ELISA, coated antigen, E. coli supernatant
horse IgG = test: ELISA, coated antigen, E. coli supernatant (no SDA 0.255, 0.261)
dog serum albumin (dog) = dog serum albumin (dog) (UniProt P49822); test: ELISA, coated albumin, E. coli supernatant
[1] = target: horse serum albumin (horse) (UniProt P35747); test: ELISA, coated albumin, E. coli supernatant
[2] = target: human serum albumin (human) (UniProt P02768); test: ELISA, coated albumin, E. coli supernatant

Chain of dog serum albumin (dog) (P49822 25-608): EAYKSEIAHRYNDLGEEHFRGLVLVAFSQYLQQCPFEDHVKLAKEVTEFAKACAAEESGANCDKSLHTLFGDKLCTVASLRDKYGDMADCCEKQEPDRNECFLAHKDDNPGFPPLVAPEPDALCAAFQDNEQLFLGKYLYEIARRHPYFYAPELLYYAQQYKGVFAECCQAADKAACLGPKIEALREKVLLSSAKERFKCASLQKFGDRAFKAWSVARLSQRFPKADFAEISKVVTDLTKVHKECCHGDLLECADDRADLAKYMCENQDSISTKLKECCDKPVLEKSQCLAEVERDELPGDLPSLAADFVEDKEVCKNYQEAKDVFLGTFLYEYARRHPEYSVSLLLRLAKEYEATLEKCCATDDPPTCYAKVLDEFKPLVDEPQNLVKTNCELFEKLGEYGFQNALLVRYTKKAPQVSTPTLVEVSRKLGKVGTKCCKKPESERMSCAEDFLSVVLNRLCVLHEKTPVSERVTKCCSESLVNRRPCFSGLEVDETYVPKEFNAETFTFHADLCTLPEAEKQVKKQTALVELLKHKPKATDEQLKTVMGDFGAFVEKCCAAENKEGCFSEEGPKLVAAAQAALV
Chain of horse serum albumin (horse) (P35747 25-607): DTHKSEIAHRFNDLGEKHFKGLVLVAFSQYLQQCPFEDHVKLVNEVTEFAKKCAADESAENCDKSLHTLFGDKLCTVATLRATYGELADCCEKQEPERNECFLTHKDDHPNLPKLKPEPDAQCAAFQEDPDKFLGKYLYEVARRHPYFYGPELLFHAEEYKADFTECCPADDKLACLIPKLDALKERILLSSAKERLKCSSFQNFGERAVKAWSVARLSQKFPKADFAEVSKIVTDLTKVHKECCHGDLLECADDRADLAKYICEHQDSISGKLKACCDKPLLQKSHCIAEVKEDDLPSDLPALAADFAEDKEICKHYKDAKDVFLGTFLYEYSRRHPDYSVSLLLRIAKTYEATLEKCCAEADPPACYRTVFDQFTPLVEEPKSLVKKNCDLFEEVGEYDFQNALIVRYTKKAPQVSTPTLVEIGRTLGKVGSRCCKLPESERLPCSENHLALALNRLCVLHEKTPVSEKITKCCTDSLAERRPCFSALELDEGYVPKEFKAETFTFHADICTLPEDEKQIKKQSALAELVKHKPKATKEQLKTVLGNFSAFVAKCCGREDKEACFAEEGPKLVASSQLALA

| Binder | absorbance at 450 nm (swine IgG) | absorbance at 450 nm (guinea pig IgG) | absorbance at 450 nm (horse IgG Fab fragment) | absorbance at 450 nm (horse IgG Fc fragment) | absorbance at 450 nm (dog IgG) | absorbance at 450 nm (dog IgG Fab fragment) | absorbance at 450 nm (bovine IgG) | absorbance at 450 nm (human IgG) | absorbance at 450 nm (horse IgG) | absorbance at 450 nm (dog serum albumin (dog)) | absorbance at 450 nm [1] | absorbance at 450 nm [2] |
| --- | --- | --- | --- | --- | --- | --- | --- | --- | --- | --- | --- | --- |
| SVG07 (VHH, not shown: large carriers) VHH: QVQLQESGPGLVKPSQTLSLTCTVSGGSITTTAYAWSWIRQPPGKGLEWMGAIRFDGTTDYSPSLKSRISISRDTSNNQFSLRMSSVTPEDTAVYYCARYGVVSDHGGLDYWGQGTQVTVSS | 0.103 A450 | 0.249 A450 | 0.152 A450 | 0.099 A450 | 0.479 A450 | 0.454 A450 | 0.121 A450 | 0.17 A450 | 0.401 A450 |  |  |  |
| SVG19 (VHH, not shown: large carriers) VHH: QVQLQQSGGGLVQPGGSLRLSCAASGFTFSSYAMSWVRQAPGKGLEWVSAINSGGGSTSYADSVKGRFTISRDNAKNTLYLQMNSLKPEDTAVYYCAKDFDPWGVGTGGYDYWGQGTQVTVSS | 0.146 A450 | 0.435 A450 | 0.472 A450 | 0.079 A450 | 1.02 A450 | 1.22 A450 | 0.453 A450 | 0.309 A450 | 0.681 A450 |  |  |  |
| SVG24 (VHH, not shown: large carriers) VHH: QVQLQQSGGGLVQAGGSLRLSCAASGRTFSTYNIAWFRQAPGKEREFVTAITWGSGNTYYADSVKGRFTISRDNAKNTVFLQMNSLKPDDTAVYYCAARRSLGPTMAFAYEYWGQGTQVTVSS | 0.341 A450 | 0.068 A450 | 0.06 A450 | 1.67 A450 | 1.74 A450 | 0.074 A450 | 0.075 A450 | 0.084 A450 | 0.765 A450 |  |  |  |
| SVG03 (VHH, not shown: large carriers) VHH: QVQLQESGGGLVQAGGSLRLSCAASGRTFSNYVMGWFRQAPGKEREFVSAISWNGVSTFYADSVKGRFTISRDNAKNTVYLQMNSLKPEDTAVYYCAADERFVVRYNYWGQGTQVTVSS | 0.075 A450 | 0.063 A450 | 0.057 A450 | 0.476 A450 | 0.07 A450 | 0.054 A450 | 0.061 A450 | 0.076 A450 | 1.1 A450 |  |  |  |
| SVG13 (VHH) VHH: QVQLQESGGGLVQPGGSLRLSCEASGFTFDDYGMSWVRQAPGKGLEWVSSLTPNGGSTYYADSVKGRFTISRDNAKNTLYLQMNSLKPEDTALYYCAKNSYYGAMDYWGKGTLVTVSS | 0.195 A450 | 0.579 A450 | 0.222 A450 | 0.097 A450 | 0.693 A450 | 0.59 A450 | 0.272 A450 | 0.524 A450 | 0.436 A450 |  |  |  |
| SVG23 (VHH, not shown: large carriers) VHH: QVQLQESGGGLVQAGGSLRLSCAASGRAFGSYTMNWFRQAPGKERDFVAGIMSSGMNTWYADSVKGRFTISRDNAKNTVYLQMNSLKPEDTAVYYCASRPRSTMTSGRYLYDYWGQGTQVTVSS | 0.092 A450 | 0.068 A450 | 0.056 A450 | 0.072 A450 | 1.74 A450 | 0.061 A450 | 0.062 A450 | 0.073 A450 | 0.26 A450 |  |  |  |
| SVG18 (VHH, not shown: large carriers) VHH: QVQLQQSGGGLVQPGGSLRLSCAASGFTFSSYAMSWVRQAPGKGLEWVSAINSGGDIISYADSVKGRFTISRDNAKNTLYLQMNSLKPEDTAVYYCAKSPIVRTYGGYDYWGQGTQVTVSS | 0.097 A450 | 0.174 A450 | 0.32 A450 | 0.072 A450 | 1 A450 | 1.36 A450 | 0.124 A450 | 0.096 A450 | 0.478 A450 |  |  |  |
| SVA04 (VHH, not shown: large carriers) VHH: QVQLQQSGGGLVQAGGSLRLACAASGRTLSSYVMGWFRQAPGKEREFVAAISWSGGSTYYADSVKGRFTISRDNAKNTVYLQMNSLKPEDTAVYYCAATLRGSNRYYSGRVYDYWGQGTQVTVSS |  |  |  |  |  |  |  |  |  | 1.53 A450 |  |  |
| SVG06 (VHH) VHH: QVQLQESGGALVQPGGSLRLSCAASGFPFSAYDMTWVRQAPGQGLEWVSTIHKSGGITTYADSVKGRFTISRDNAKNTLYLQMNNLESEDTAVYYCAKALRAHNSDYVGRNALGSWGEGTLVTVSS | 0.131 A450 | 0.204 A450 | 0.089 A450 | 0.073 A450 | 0.277 A450 | 0.178 A450 | 0.172 A450 | 0.365 A450 | 0.325 A450 |  |  |  |
| SVA12 (VHH) VHH: QVQLQESGGRLVQAEDSLRLSCAASGRTFVSYDMGWFRQAPGKEREFVAAINWRGYTTDYVDSVKGRFFISRDIAKSTVYLQMNNLKPEDTAVYYCAARQMSGSSRYSPPGRVGYDFWGQGTQVTVSS |  |  |  |  |  |  |  |  |  | 1.77 A450 | 2 A450 | 0.057 A450 |
